One sequence from patent publication US20250027114 can be followed below.

For series [1], the system named is T1, E1-2-ABE8e (Neisseria meningitidis).
T1 sequence: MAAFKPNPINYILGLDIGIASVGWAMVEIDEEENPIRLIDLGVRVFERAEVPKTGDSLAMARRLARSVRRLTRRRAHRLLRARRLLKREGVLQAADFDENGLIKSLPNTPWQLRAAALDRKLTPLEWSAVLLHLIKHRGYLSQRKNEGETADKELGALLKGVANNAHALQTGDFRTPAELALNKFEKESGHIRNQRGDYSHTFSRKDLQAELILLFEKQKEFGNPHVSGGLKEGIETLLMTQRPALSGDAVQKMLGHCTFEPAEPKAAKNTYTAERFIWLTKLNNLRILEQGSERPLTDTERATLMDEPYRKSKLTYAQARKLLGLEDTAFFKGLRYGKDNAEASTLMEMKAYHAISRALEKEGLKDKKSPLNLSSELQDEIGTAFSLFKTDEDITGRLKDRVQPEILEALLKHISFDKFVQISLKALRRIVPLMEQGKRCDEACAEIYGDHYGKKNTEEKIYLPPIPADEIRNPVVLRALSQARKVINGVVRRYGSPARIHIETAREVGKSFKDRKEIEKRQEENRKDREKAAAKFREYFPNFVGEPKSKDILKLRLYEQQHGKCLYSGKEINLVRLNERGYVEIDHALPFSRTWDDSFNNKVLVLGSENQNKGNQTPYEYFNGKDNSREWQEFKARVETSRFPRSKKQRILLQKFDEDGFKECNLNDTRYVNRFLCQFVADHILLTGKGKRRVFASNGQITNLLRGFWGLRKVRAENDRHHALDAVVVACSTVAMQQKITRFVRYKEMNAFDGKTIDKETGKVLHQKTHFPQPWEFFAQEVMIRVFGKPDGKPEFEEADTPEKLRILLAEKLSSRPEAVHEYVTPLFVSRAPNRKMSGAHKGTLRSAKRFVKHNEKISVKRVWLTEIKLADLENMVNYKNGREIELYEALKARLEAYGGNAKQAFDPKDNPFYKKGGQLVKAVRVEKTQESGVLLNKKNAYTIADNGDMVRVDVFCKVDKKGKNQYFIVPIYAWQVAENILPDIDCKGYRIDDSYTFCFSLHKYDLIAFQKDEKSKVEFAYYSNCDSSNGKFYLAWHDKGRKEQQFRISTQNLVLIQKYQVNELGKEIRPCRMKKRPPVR
As to the kind of experiment: cell_activity. The conditions noted are these: PAM N4YNC average, E. coli ABE-PPA; 14% on N4YND.

The test system of series [2] is T2, eNme2-C-dABE8e (Neisseria meningitidis).
T2 sequence: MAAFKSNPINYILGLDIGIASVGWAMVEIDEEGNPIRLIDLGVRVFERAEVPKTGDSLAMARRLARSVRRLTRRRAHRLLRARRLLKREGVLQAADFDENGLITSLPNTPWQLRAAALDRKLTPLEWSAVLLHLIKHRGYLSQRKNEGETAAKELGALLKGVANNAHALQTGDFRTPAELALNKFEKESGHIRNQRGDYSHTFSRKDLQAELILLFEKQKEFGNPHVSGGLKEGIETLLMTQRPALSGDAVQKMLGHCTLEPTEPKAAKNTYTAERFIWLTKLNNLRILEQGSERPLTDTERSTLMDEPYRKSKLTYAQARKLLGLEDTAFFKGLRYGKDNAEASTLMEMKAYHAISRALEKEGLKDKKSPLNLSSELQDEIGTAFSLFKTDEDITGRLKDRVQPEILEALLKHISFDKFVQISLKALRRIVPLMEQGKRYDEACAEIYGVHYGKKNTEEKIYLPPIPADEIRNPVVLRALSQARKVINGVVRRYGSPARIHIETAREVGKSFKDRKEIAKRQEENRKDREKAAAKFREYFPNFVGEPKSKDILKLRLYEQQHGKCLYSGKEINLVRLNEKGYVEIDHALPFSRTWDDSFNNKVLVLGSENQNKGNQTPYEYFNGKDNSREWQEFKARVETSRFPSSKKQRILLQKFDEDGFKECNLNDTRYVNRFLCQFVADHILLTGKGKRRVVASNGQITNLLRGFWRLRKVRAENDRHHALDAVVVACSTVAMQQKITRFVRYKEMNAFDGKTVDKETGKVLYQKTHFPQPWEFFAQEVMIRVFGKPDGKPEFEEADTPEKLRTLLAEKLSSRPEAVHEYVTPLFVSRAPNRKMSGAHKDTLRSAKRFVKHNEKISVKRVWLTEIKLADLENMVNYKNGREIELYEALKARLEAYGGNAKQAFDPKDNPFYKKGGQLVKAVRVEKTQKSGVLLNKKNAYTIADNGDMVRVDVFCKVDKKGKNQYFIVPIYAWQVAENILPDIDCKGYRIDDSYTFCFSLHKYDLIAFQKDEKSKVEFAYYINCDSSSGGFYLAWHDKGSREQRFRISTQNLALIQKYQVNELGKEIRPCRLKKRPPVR
As to the kind of experiment: cell_activity. The note with it: all N4CN PAMs, E. coli ABE-PPA.

As to “AUGGCCCAGACUGAGCACGUGAGGUUGUAGCUCCCUUUCUCAUUUCGGAAACGAAAUGAGAACCGUUGCUACAAUAAGGCCGUCUGAAAAGAUGUGCCGCAACGCUCUGCCCCUUAAAGCUUCUGCUUUAAGGGGCAUCGUUUA / ATGGCCCAGACTGAGCACGTGA / TCACGTGCTCAGTCTGGGCCAT [ABE-PPA sgRNA ; ABE-PPA protospacer library target]”, the activity (% A-to-G conversion) in series [1] is 29; in series [2], greater than 80.
